Data on 1 variant can be found in IntAct's records for PubMed 11483516.

The labels stand for the following.
B1: STAM-binding protein (Homo sapiens), O95630 (parent)
chain: MSDHGDVSLPPEDRVRALSQLGSAVEVNEDIPPRRYFRSGVEIIRMASIYSEEGNIEHAFILYNKYITLFIEKLPKHRDYKSAVIPEKKDTVKKLKEIAFPKAEELKAELLKRYTKEYTEYNEEKKKEAEELARNMAIQQELEKEKQRVAQQKQQQLEQEQFHAFEEMIRNQELEKERLKIVQEFGKVDPGLGGPLVPDLEKPSLDVFPTLTVSSIQPSDCHTTVRPAKPPVVDRSLKPGALSNSESIPTIDGLRHVVVPGRLCPQFLQLASANTARGVETCGILCGKLMRNEFTITHVLIPKQSAGSDYCNTENEEELFLIQDQQGLITLGWIHTHPTQTAFLSSVDLHTHCSYQMMLPESVAIVCSPKFQETGFFKLTDHGLEEISSCRQKGFHPHSKDPPLFCSCSHVTVVDRAVTITDLR
partner: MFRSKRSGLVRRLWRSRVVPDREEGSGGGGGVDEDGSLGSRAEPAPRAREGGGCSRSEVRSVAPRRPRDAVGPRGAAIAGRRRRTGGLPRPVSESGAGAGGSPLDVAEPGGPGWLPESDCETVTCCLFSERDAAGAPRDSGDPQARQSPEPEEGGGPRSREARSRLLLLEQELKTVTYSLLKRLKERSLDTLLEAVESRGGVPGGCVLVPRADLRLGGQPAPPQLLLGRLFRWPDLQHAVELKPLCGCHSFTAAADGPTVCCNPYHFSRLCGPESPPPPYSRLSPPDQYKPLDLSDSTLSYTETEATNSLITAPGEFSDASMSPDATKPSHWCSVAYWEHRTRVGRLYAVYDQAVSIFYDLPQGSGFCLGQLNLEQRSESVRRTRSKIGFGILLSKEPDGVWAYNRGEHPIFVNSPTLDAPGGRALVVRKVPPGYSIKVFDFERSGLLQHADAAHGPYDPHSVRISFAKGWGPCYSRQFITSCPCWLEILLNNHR

In the assay the parent is B1. The conditions noted are these: with smad6_mouse Smad6, O35182.
MSDHGDVSLPPEDRVRALSQLGSAVEVNEDIPPRRYFRSGVEIIRMASIYSEEGNIEHAFILYNKYITLFIEKLPKHRDYKSAVIPEKKDTVKKLKEIAFPKAEELKAELLKRYTKEYTEYNEEKKKEAEELARNMAIQQELEKEKQRVAQQKQQQLEQEQFHAFEEMIRNQELEKERLKIVQEFGKVDPGLGGPLVPDLEKPSLDVFPTLTVSSIQPSDCHTTVRPAKPPVVDRSLKPGALANAEAIPTIDGLRHVVVPGRLCPQFLQLASANTARGVETCGILCGKLMRNEFTITHVLIPKQSAGSDYCNTENEEELFLIQDQQGLITLGWIHTHPTQTAFLSSVDLHTHCSYQMMLPESVAIVCSPKFQETGFFKLTDHGLEEISSCRQKGFHPHSKDPPLFCSCSHVTVVDRAVTITDLR [S243A;S245A;S247A]: the “effect of a mutation on the interaction” value is given as “increasing interaction”.
